# From PMC4072508, “Genome-Wide Prediction and Validation of Peptides That Bind Human Prosurvival Bcl-2 Proteins” (PLoS Computational Biology, 2014)
# Target: Bcl-xL, Q07817
# Assay: peptide SPOT array, c-Myc-tagged receptor at 1 uM or 100 nM, anti-c-Myc-Cy3
# Sequence of Bcl-xL, Q07817 (Q07817 1-209): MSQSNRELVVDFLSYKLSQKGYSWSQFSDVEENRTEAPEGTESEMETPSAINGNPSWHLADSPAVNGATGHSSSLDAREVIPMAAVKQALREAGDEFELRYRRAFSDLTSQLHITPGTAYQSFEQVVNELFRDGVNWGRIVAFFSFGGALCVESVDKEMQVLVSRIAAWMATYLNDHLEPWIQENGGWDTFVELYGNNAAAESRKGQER
row,SPOT signal as a fraction of Bim BH3's signal on the same receptor and array,Binder
1,0.04,HCQLRSVSQEIHRLSESMAQVYRGST [TDRD6]
2,0.04,DQEEACASRQDHSLASFSTVTARRNP
3,0.7,FTGNNTAVQELKRVLEQFTATFRRKA [TUBB4Q]
4,0.02,KANLEKVSRTLEDQANEYRVKLEEAQ [MYH6]
5,0.42,MGVLAAAARCLVRGLDRMSKWTSKRG [MRPL41]
6,0.03,KFRHDEIISLLKNVGERVVLEVEYEL [GRIP1]
7,0.03,VDKLKTLSETLLEMSSLFQRSGSGQM [ABCA13]
8,0.24,LFRIRLVCTILDTCGQYFDRGSSKRK [UPF2]
9,0.13,LDDIEFFITKLQKAAEAFSELSKRKK [EPS8]
10,0.02,VKAVDPTSGQLYGLARELSDEIQVQV [NUP210]
11,1.49,YGRLRPRARSDSKASTAINWLTKKFL [MYO15A]
12,0.11,FLRINMVSMKLLAYAMDFWSKGQLKA [PANK1]
13,0.46,PDGLLEFAKRLERWGRGAFGHLRLFQ [LRRC41]
14,0.55,RERLRQSGERLRQSGERLRQSGERFK [MURC]
15,0.02,TDENKKVGLADKDLAKQYSDRLECCE [NUB1]
16,0.47,HRNTRNLAAFLGKALDLLRFPVKQLY [RP1L1]
17,0.05,PFNIQDYAEALKNYAASIYNLSKKHD [NAALAD2]
18,0.42,AIKPVSFIRDLKKILRHFRFGNQEDA [USP36]
19,0.03,QNSRDPFCKAIEEVAQDLDLRIKNII [C12orf48]
20,0.22,VFERCELARTDKRLGMDGYRGISLAN [LYZ]

row,SPOT signal as a fraction of Bim BH3's signal on the same receptor and array,Binder
1,0.02,TCELREFVKNIDQVSSEVLEGWPDSY [TLR6]
2,0.03,LENYYRLADDLSNAARELRVLIDDSQ [MRS2]
3,1.2,ELLRLRQHWKDRKVGDKILGDLSYRS
4,0.28,LKELDLSGNSLSHSLVKSLCKTLRRP [NLRP1]
5,0.45,RRFAKTIGKVDMQYADILSKDFPAYC [UNC13B]
6,0.03,DFMGRTFAKPDVKMADEAYCPPRFPP [OTOF]
7,0.08,IQRMGKYALLLQELARACGGPTQELS [PLEKHG4]
8,0.02,AGDVEGFCSSIHDTSVSAGFRALYEE [KLHL15]
9,0.12,NNDLSHIAGKLTYASQKYKNHIGTEI [HFM1]
10,0.08,KDSVEGICSKIYHISLEYVKRIREKH [PCIF1]
11,0.02,EQKVKQKAADLLEMATFLQKRVEEEE [C10orf79]
12,0.05,PEDLQDVGWFDHKLSQQILKKEKEKK [TLR5]
13,0.46,ELLRLRQHWKLRKVLDKILGDLSYRS
14,0.39,RAELTGLARRLADRLRKLQETNLRAV [RIMBP3]
15,0.03,SDDVQKIVEELQSLSKMLLKDVEEEK [IL31]
16,0.1,DQEEACASRQLHSLLSFSTVTARRNP
17,0.38,HPKRKQVTELDLRKGANVNEKNKDFM [TNKS]
18,0.66,RGRTRGWVQTLARMLRRTRGPVERAA [C6orf223]
19,0.03,ESEVQHLSQKLYDWSDSQNLKITGKA [ANKRD32]
20,0.33,NKDGKSVSNRLRRLLDNCGGKVLSIT [KIAA0430]
